Source: publication PMC6640702, “IgG Charge: Practical and Biological Implications” (Antibodies, 2019)

Tests used:
[1] = molecular target: Fc fragment of human IgG4 (IdeS-cleaved; identical for IgG4 and IgG4Pro) (human); experiment: AUC; sedimentation velocity, absorbance 280 nm, 20 °C, 40,000 rpm, three concentrations in 1:3 dilutions from 0.5 mg/mL (0.5, 0.167, 0.056 mg/mL); Figure 2 in 10 mM sodium acetate, 50 mM NaCl, pH 5.0; oligomer told from sw against ~50 kDa
[2] = molecular target: the molecule itself; experiment: as above

## Fc fragment of human IgG4 (IdeS-cleaved; identical for IgG4 and IgG4Pro) (domain or fragment)
[1]
  stoichiometry N: 2

B1: Fc fragment of human IgG2 (IdeS-cleaved) (domain or fragment)
chain: GPSVFLFPPKPKDTLMISRTPEVTCVVVDVSHEDPEVQFNWYVDGVEVHNAKTKPREEQFNSTFRVVSVLTVVHQDWLNGKEYKCKVSNKGLPAPIEKTISKTKGQPREPQVYTLPPSREEMTKNQVSLTCLVKGFYPSDIAVEWESNGQPENNYKTTPPMLDSDGSFFLYSKLTVDKSRWQQGNVFSCSVMHEALHNHYTQKSLSLSPGK
modifications: asparagine (N)-linked glycoforms G0F, G1F, G2F (told of the intact IgGs)
[2]
  stoichiometry N: 2
